In the assay the target is bovine submaxillary mucin (BSM) (bovine). Description: BSM ELISA on BSM-coated wells, periodate-sensitive signal (periodate-treated wells subtracted). On the technique in general: ELISA stands for enzyme-linked immunosorbent assay.

B1: hSIA103 (antibody, human IgG1, kappa, V domains shown)
VH: QVQLVQSGAEVKKPGASVKVSCKASGYTFTDHAIHWVRQAPGQGLEWMGYISPGNGDIKYNEKFKDRVTMTADKSSSTAYMQLRSLRSDDTAVYFCKRSLLALDYWGQGTLVTVSS
VL: DIQMTQSPSSLSASVGDRVTITCKASQDVGTNIAWYQQKPGKAPKVLIYSASTRHTGVPSRFSGSGSGTDFTLTISSLQPEDFATYFCQQYSSFPLTFGQGTKVEIKR
The molecule B1 gave an EC50 of 1.8 nM.

B2: hSIA101 (antibody, human IgG1, kappa, V domains shown)
VH: EVQLVQSGAEVKKPGASVKVSCKASGYTFTDHAIHWVRQAPGQGLEWMGYFSPGNDDIKYNEKFRGRVTMTADKSSSTAYMELRSLRSDDTAVYFCKRSLSTPYWGQGTLVTVSS
VL: DIVMTQSPDSLAVSLGERATINCKSSQSLLNRGNHKNYLTWYQQKPGQPPKLLIYWASTRESGVPDRFSGSGSGTDFTLTISSLQAEDVAVYYCQNDYTYPYTFGQGTKVEIKR
For B2, the EC50 worked out at 4.2 nM. Against the preceding molecule, the EC50 is about 2.3-fold higher.

The EC50 is the concentration at which the effect is half-maximal. A high value points to a less potent agent.

The record behind these values is patent publication US20200000932A1.
